These results are taken from paper PMC12598741 (Antibody Therapeutics, 2025).

For test [1], the target named is light-chain single-domain antibody L6 (mCD16-specific VHHL). Briefly: BLI. The conditions noted are these: both partners purified.
In test [2] the target is T1, human tumor necrosis factor alpha (hTNF-α)-His (human, UniProt P01375).
T1 construct: also called hTNF-a
Nature of the test: BLI. The conditions noted are these: both partners purified.

T1 sequence (P01375 whole entry): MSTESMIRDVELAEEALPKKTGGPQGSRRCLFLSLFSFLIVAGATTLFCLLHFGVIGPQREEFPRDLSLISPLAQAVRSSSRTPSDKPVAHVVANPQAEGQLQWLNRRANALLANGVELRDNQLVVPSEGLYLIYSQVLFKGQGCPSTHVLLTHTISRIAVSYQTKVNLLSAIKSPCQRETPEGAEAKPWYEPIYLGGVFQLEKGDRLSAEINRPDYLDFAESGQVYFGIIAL

B1: mouse CD16 (mCD16), his-tagged (receptor, UniProt P08508 31-215, looked up)
chain: ALPKAVVKLDPPWIQVLKEDMVTLMCEGTHNPGNSSTQWFHNGRSIRSQVQASYTFKATVNDSGEYRCQMEQTRLSDPVDLGVISDWLLLQTPQRVFLEGETITLRCHSWRNKLLNRISFFHNEKSVRYHHYKSNFSIPKANHSHSGDYYCKGSLGSTQHQSKPVTITVQDPATTSSISLVWYHT
As usually defined, the Kd is a measure of binding affinity in units of concentration. B1: the Kd in test [1] was found to be 54.3 ± 1.41 nM.

B2: hIgG4 bsAb by modular replacement: golimumab (Gmab) heavy chain with L6 light chain (bispecific antibody, V domains shown)
VH: QVQLVESGGGVVQPGRSLRLSCAASGFIFSSYAMHWVRQAPGNGLEWVAFMSYDGSNKKYADSVKGRFTISRDNSKNTLYLQMNSLRAEDTAVYYCARDRGIAAGGNYYYYGMDVWGQGTTVTVSS
VL: EIVLTQSPGTLSLSPGERATLSCRASGSTFSSYTLAWYQQKPGQAPRLLIYIYSDGGRTSRATGIPDRFSGSGSGTDLTLTISRLEPEDFAVYYCNAESPFYDYDYWGKGTKVEIK
As for B2, the binding result in test [2] was “binds”.
